B1: periplasmically-targeted bovine enterokinase expressed with the DsbA periplasmic signal sequence (protein)
chain: IVGGSDSREGAWPWVVALYFDDQQVCGASLVSRDWLVSAAHCVYGRNMEPSKWKAVLGLHMASNLTSPQIETRLIDQIVINPHYNKRRKNNDIAMMHLEMKVNYTDYIQPICLPEENQVFPPGRICSIAGWGALIYQGSTADVLQEADVPLLSNEKCQQQMPEYNITENMVCAGYEAGGVDSCQGDSGGPLMCQENNRWLLAGVTSFGYQCALPNRPGVYARVPRFTEWIQSFLH
B2: periplasmically-targeted bovine enterokinase expressed with the OmpA periplasmic signal sequence (protein)
chain: B1 chain
B3: periplasmically-targeted bovine enterokinase expressed with the MalE periplasmic signal sequence (protein)
chain: B1 chain

biological target: cleavage control protein containing an enterokinase cleavage site (Asp-Asp-Asp-Asp-Lys)

Protein | cleavage of the 48 kDa control protein into 32 and 16 kDa fragments (SDS-PAGE, Coomassie; periplasmic fraction, 30 C, 24 h)
B1 | the periplasmically localized enterokinase is active in cleaving the target protein
B2 | the periplasmically localized enterokinase is active in cleaving the target protein
B3 | the periplasmically localized enterokinase is active in cleaving the target protein
